Laboratory results taken from article doi:10.1101/2021.04.05.438428.

Target: microtubule (MT) of HeLa cells (human (endogenous in HeLa)) (UniProt P68363)
Assay: single-molecule live-cell imaging

UniProt P68363, sequence (P68363 whole entry): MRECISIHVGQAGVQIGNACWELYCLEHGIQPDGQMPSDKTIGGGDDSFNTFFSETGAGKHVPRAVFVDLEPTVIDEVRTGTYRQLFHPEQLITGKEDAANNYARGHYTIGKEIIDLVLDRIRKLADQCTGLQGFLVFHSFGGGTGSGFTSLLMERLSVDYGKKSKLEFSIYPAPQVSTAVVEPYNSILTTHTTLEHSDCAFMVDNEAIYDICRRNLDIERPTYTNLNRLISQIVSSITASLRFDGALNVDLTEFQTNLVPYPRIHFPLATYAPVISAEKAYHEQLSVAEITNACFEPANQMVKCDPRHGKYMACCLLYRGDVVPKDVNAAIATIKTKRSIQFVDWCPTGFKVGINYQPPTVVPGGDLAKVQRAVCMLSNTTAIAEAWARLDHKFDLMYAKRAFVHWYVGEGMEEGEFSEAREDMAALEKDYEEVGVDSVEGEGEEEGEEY

Substance “mouse dynein heavy chain (DYNC1H1) tagged with GFP (from UniProt Q9JHU4 1-4644) (natural protein)” has a koff of 1.7 s⁻¹ and a mean residence time of 0.55 s.
